Legend:
[1] = biological target: human polyclonal IgG (Gammanorm) (human); test: SPR; vs reference Zvar1; 0.5 M NaOH cycles
[2] = biological target: human polyclonal IgG (Gammanorm) (human); test: SPR; after 96-100 CIP cycles 0.5 M NaOH
[3] = biological target: human polyclonal IgG (Gammanorm) (human); test: SPR; after 100 CIP cycles 0.5 M NaOH
[4] = biological target: human polyclonal IgG (Gammanorm) (human); test: SPR; vs reference Zvar4; 0.5 M NaOH
[5] = biological target: human polyclonal IgG (Gammanorm) (human); test: SPR; vs reference Zvar2; 0.5 M NaOH

A capacity relative to reference [1] of 1.04 and a capacity after 96-100 cycles [2] of 53% were found for Zvar(N11E,Q32E,K50R)1 (designed binder) in this work.

A capacity relative to reference [1] of 1.31 and a capacity after 96-100 cycles [2] of 59% were found for “Zvar(N11K,H18K,D37E,A42R,N43A,L44I)1 (designed binder)” in this work.

A capacity relative to reference [1] of 1.46 and a capacity after 96-100 cycles [2] of 67% were found for “Zvar(N11K,H18K,S33K,D37E,A42R,N43A,L44I,K50R,L51Y)1 (designed binder)” in this work.

A capacity relative to reference [1] of 1.19 and a capacity after 96-100 cycles [2] of 56% were found for “Zvar(Q9A,N11E,A29D,Q40V,A42K,N43A,L44I)1 (designed binder)” in this work.

A capacity relative to reference [1] of 1.21 and a capacity after 96-100 cycles [2] of 57% were found for “Zvar(Q9A,N11E,A29E,Q40V,A42K,N43A,L44I)1 (designed binder)” in this work.

A capacity relative to reference [1] of 1.35 and a capacity after 96-100 cycles [2] of 62% were found for “Zvar(Q9A,N11E,A29F,Q40V,A42K,N43A,L44I)1 (designed binder)” in this work.

A capacity relative to reference [1] of 1.21 and a capacity after 96-100 cycles [2] of 57% were found for “Zvar(Q9A,N11E,A29H,Q40V,A42K,N43A,L44I)1 (designed binder)” in this work.

A capacity relative to reference [1] of 1.23 and a capacity after 96-100 cycles [2] of 58% were found for “Zvar(Q9A,N11E,A29I,Q40V,A42K,N43A,L44I)1 (designed binder)” in this work.

A capacity relative to reference [1] of 1.28 and a capacity after 96-100 cycles [2] of 59% were found for “Zvar(Q9A,N11E,A29K,Q40V,A42K,N43A,L44I)1 (designed binder)” in this work.

A capacity relative to reference [1] of 1.33 and a capacity after 96-100 cycles [2] of 61% were found for “Zvar(Q9A,N11E,A29L,Q40V,A42K,N43A,L44I)1 (designed binder)” in this work.

A capacity relative to reference [1] of 1.32 and a capacity after 96-100 cycles [2] of 62% were found for “Zvar(Q9A,N11E,A29M,Q40V,A42K,N43A,L44I)1 (designed binder)” in this work.

A capacity relative to reference [1] of 1.3 and a capacity after 96-100 cycles [2] of 61% were found for “Zvar(Q9A,N11E,A29N,Q40V,A42K,N43A,L44I)1 (designed binder)” in this work.

A capacity relative to reference [1] of 1.28 and a capacity after 96-100 cycles [2] of 60% were found for “Zvar(Q9A,N11E,A29Q,Q40V,A42K,N43A,L44I)1 (designed binder)” in this work.

A capacity relative to reference [1] of 1.26 and a capacity after 96-100 cycles [2] of 58% were found for “Zvar(Q9A,N11E,A29R,Q40V,A42K,N43A,L44I)1 (designed binder)” in this work.

A capacity relative to reference [1] of 1.38 and a capacity after 96-100 cycles [2] of 66% were found for “Zvar(Q9A,N11E,A29S,Q40V,A42K,N43A,L44I)1 (designed binder)” in this work.

A capacity relative to reference [1] of 1.28 and a capacity after 96-100 cycles [2] of 60% were found for “Zvar(Q9A,N11E,A29T,Q40V,A42K,N43A,L44I)1 (designed binder)” in this work.

A capacity relative to reference [1] of 1.32 and a capacity after 96-100 cycles [2] of 62% were found for “Zvar(Q9A,N11E,A29V,Q40V,A42K,N43A,L44I)1 (designed binder)” in this work.

A capacity relative to reference [1] of 1.3 and a capacity after 96-100 cycles [2] of 60% were found for “Zvar(Q9A,N11E,A29W,Q40V,A42K,N43A,L44I)1 (designed binder)” in this work.

A capacity relative to reference [1] of 1.27 and a capacity after 96-100 cycles [2] of 61% were found for “Zvar(Q9A,N11E,A29Y,Q40V,A42K,N43A,L44I)1 (designed binder)” in this work.

A remaining capacity 100 cycles [3] of 81% and a capacity relative to ref. 100 cycles [4] of 1.13 were found for “Zvar(Q9A,N11E,D37E,Q40V,A42K,N43A,L44I)4 (designed binder)” in this work.

A remaining capacity 100 cycles [3] of 84% and a capacity relative to ref. 100 cycles [4] of 1.17 were found for “Zvar(Q9A,N11E,D37E,Q40V,A42R,N43A,L44I)4 (designed binder)” in this work.

A capacity relative to reference [1] of 1.35 and a capacity after 96-100 cycles [2] of 65% were found for “Zvar(Q9A,N11E,N28A,Q40V,A42K,N43A,L44I)1 (designed binder)” in this work.

A remaining capacity 100 cycles [3] of 84% and a capacity relative to ref. 100 cycles [4] of 1.24 were found for “Zvar(Q9A,N11E,N28A,Q40V,A42K,N43A,L44I)4 (designed binder)” in this work.

A capacity relative to ref. 100 cycles [5] of 1.26 and a remaining capacity 100 cycles [3] of 68% were found for “Zvar(Q9A,N11E,Q40V,A42K,N43A,L44I)2 with A56, P57 and K58 in linker deleted (designed binder)” in this work.

A capacity relative to ref. 100 cycles [5] of 1.27 and a remaining capacity 100 cycles [3] of 70% were found for “Zvar(Q9A,N11E,Q40V,A42K,N43A,L44I)2 with D2, A3 and K4 in linker deleted (designed binder)” in this work.

A capacity relative to ref. 100 cycles [5] of 1.3 and a remaining capacity 100 cycles [3] of 70% were found for “Zvar(Q9A,N11E,Q40V,A42K,N43A,L44I)2 with K4, F5, D6, K7 and E8 in linker deleted (designed binder)” in this work.

A capacity relative to ref. 100 cycles [5] of 1.38 and a remaining capacity 100 cycles [3] of 76% were found for “Zvar(Q9A,N11E,Q40V,A42K,N43A,L44I)2 with K58, V1 and D2 in linker deleted (designed binder)” in this work.

A capacity relative to ref. 100 cycles [5] of 1.35 and a remaining capacity 100 cycles [3] of 74% were found for “Zvar(Q9A,N11E,Q40V,A42K,N43A,L44I)2 with P57, K58, V1, D2 and A3 in linker deleted (designed binder)” in this work.

A capacity relative to ref. 100 cycles [5] of 1.39 and a remaining capacity 100 cycles [3] of 75% were found for “Zvar(Q9A,N11E,Q40V,A42K,N43A,L44I)2 with V1, D2 and A3 in linker deleted (designed binder)” in this work.

A capacity relative to ref. 100 cycles [5] of 1.13 and a remaining capacity 100 cycles [3] of 62% were found for “Zvar(Q9A,N11E,Q40V,A42K,N43A,L44I)2 with V1, D2, A3, K4, F5, D6, K7 and E8 in linker deleted (designed binder)” in this work.

A capacity relative to reference [1] of 1.26 and a capacity after 96-100 cycles [2] of 58% were found for “Zvar(Q9A,N11E,Q40V,A42K,N43A,L44I,D53F)1 (designed binder)” in this work.

A capacity relative to reference [1] of 1.41 and a capacity after 96-100 cycles [2] of 65% were found for “Zvar(Q9A,N11E,Q40V,A42K,N43A,L44I,D53K)1 (designed binder)” in this work.

A capacity relative to reference [1] of 1.3 and a capacity after 96-100 cycles [2] of 60% were found for “Zvar(Q9A,N11E,Q40V,A42K,N43A,L44I,D53R)1 (designed binder)” in this work.

A capacity relative to reference [1] of 1.35 and a capacity after 96-100 cycles [2] of 62% were found for “Zvar(Q9A,N11E,Q40V,A42K,N43A,L44I,D53W)1 (designed binder)” in this work.

A capacity relative to reference [1] of 1.28 and a capacity after 96-100 cycles [2] of 59% were found for “Zvar(Q9A,N11E,Q40V,A42K,N43A,L44I,D53Y)1 (designed binder)” in this work.

A capacity relative to reference [1] of 1.2 and a capacity after 96-100 cycles [2] of 55% were found for “Zvar(Q9A,N11E,Q40V,A42K,N43del,L44I)1 (designed binder)” in this work.

A capacity relative to reference [1] of 1.24 and a capacity after 96-100 cycles [2] of 57% were found for “Zvar(Q9A,N11E,Q40V,A42del,N43A,L44I)1 (designed binder)” in this work.

A capacity relative to reference [1] of 1.28 and a capacity after 96-100 cycles [2] of 59% were found for “Zvar(Q9A,N11E,Q40del,A42K,N43A,L44I)1 (designed binder)” in this work.

A capacity relative to reference [1] of 1.4 and a capacity after 96-100 cycles [2] of 63% were found for “Zvar(Q9A,N11K,H18K,D37E,A42R,N43A,L44I)1 (designed binder)” in this work.

A capacity relative to reference [1] of 1.49 and a capacity after 96-100 cycles [2] of 67% were found for “Zvar(Q9A,N11K,H18K,D37E,A42R,N43A,L44I,K50R)1 (designed binder)” in this work.

A capacity relative to reference [1] of 1.28 and a capacity after 96-100 cycles [2] of 59% were found for “Zvar(Q9A,N11K,H18K,S33K,D37E,A42R,N43A,L44I,K50R,L51Y)1 (designed binder)” in this work.

A capacity relative to reference [1] of 1.3 and a capacity after 96-100 cycles [2] of 60% were found for “Zvar(Q9del,N11E,Q40V,A42K,N43A,L44I)1 (designed binder)” in this work.

A reference capacity after 96-100 cycles [2] of 35% was found for “parental B domain of Staphylococcus Protein A (from UniProt A0A0H3K686 212-269)” in this work.

A reference capacity after 96-100 cycles [2] of 49% was found for “parental C domain of Staphylococcus Protein A (from UniProt A0A0H3K686 270-327)” in this work.

Reference: US20190119318A1
